Data taken from paper PMC4865239.

Tests used:
[1] = target: CEACAM-binding Opa protein (OpaCEA) from N. gonorrhoeae, expressed in E. coli (E. coli OpaCEA) (Neisseria gonorrhoeae)
[2] = target: AfaE-III adhesin of uropathogenic E. coli strain A30 (E. coli AfaE-III) (E. coli (uropathogenic strain A30))

GFP-tagged amino-terminal IgV-like domain of human CEA (CEA-N) (domain or fragment)
bacteria recovered from the urogenital tract 24 h after vaginal infection, CEAtg mice (human CEA on mucosal surfaces) against wildtype mice [1]: > 30 fold
bacteria recovered from the urogenital tract 24 h after vaginal infection, CEAtg mice (human CEA on mucosal surfaces) against wildtype mice [2]: > 80 fold
